Laboratory results reported in patent US20100297606A1.

Molecular target: humanized anti-human IL-6 receptor monoclonal IgG antibody MRA (tocilizumab), untreated
Assay: dot blot of untreated MRA on nitrocellulose (1.5 to 100 ng per spot), biotinylated peptide with HRP-conjugated streptavidin

- detection limit: 6 ng/spot
Substance: Fc-III peptide
